# Experimental data taken from publication PMC4300236.
# Molecular target: rabbit skeletal muscle type 1 ryanodine receptor (RyR1) (rabbit (Oryctolagus cuniculus)) (UniProt P11716)
# Experiment: cryo-EM structure
# rabbit skeletal muscle type 1 ryanodine receptor (RyR1), P11716 1-5037, sequence (P11716 whole entry): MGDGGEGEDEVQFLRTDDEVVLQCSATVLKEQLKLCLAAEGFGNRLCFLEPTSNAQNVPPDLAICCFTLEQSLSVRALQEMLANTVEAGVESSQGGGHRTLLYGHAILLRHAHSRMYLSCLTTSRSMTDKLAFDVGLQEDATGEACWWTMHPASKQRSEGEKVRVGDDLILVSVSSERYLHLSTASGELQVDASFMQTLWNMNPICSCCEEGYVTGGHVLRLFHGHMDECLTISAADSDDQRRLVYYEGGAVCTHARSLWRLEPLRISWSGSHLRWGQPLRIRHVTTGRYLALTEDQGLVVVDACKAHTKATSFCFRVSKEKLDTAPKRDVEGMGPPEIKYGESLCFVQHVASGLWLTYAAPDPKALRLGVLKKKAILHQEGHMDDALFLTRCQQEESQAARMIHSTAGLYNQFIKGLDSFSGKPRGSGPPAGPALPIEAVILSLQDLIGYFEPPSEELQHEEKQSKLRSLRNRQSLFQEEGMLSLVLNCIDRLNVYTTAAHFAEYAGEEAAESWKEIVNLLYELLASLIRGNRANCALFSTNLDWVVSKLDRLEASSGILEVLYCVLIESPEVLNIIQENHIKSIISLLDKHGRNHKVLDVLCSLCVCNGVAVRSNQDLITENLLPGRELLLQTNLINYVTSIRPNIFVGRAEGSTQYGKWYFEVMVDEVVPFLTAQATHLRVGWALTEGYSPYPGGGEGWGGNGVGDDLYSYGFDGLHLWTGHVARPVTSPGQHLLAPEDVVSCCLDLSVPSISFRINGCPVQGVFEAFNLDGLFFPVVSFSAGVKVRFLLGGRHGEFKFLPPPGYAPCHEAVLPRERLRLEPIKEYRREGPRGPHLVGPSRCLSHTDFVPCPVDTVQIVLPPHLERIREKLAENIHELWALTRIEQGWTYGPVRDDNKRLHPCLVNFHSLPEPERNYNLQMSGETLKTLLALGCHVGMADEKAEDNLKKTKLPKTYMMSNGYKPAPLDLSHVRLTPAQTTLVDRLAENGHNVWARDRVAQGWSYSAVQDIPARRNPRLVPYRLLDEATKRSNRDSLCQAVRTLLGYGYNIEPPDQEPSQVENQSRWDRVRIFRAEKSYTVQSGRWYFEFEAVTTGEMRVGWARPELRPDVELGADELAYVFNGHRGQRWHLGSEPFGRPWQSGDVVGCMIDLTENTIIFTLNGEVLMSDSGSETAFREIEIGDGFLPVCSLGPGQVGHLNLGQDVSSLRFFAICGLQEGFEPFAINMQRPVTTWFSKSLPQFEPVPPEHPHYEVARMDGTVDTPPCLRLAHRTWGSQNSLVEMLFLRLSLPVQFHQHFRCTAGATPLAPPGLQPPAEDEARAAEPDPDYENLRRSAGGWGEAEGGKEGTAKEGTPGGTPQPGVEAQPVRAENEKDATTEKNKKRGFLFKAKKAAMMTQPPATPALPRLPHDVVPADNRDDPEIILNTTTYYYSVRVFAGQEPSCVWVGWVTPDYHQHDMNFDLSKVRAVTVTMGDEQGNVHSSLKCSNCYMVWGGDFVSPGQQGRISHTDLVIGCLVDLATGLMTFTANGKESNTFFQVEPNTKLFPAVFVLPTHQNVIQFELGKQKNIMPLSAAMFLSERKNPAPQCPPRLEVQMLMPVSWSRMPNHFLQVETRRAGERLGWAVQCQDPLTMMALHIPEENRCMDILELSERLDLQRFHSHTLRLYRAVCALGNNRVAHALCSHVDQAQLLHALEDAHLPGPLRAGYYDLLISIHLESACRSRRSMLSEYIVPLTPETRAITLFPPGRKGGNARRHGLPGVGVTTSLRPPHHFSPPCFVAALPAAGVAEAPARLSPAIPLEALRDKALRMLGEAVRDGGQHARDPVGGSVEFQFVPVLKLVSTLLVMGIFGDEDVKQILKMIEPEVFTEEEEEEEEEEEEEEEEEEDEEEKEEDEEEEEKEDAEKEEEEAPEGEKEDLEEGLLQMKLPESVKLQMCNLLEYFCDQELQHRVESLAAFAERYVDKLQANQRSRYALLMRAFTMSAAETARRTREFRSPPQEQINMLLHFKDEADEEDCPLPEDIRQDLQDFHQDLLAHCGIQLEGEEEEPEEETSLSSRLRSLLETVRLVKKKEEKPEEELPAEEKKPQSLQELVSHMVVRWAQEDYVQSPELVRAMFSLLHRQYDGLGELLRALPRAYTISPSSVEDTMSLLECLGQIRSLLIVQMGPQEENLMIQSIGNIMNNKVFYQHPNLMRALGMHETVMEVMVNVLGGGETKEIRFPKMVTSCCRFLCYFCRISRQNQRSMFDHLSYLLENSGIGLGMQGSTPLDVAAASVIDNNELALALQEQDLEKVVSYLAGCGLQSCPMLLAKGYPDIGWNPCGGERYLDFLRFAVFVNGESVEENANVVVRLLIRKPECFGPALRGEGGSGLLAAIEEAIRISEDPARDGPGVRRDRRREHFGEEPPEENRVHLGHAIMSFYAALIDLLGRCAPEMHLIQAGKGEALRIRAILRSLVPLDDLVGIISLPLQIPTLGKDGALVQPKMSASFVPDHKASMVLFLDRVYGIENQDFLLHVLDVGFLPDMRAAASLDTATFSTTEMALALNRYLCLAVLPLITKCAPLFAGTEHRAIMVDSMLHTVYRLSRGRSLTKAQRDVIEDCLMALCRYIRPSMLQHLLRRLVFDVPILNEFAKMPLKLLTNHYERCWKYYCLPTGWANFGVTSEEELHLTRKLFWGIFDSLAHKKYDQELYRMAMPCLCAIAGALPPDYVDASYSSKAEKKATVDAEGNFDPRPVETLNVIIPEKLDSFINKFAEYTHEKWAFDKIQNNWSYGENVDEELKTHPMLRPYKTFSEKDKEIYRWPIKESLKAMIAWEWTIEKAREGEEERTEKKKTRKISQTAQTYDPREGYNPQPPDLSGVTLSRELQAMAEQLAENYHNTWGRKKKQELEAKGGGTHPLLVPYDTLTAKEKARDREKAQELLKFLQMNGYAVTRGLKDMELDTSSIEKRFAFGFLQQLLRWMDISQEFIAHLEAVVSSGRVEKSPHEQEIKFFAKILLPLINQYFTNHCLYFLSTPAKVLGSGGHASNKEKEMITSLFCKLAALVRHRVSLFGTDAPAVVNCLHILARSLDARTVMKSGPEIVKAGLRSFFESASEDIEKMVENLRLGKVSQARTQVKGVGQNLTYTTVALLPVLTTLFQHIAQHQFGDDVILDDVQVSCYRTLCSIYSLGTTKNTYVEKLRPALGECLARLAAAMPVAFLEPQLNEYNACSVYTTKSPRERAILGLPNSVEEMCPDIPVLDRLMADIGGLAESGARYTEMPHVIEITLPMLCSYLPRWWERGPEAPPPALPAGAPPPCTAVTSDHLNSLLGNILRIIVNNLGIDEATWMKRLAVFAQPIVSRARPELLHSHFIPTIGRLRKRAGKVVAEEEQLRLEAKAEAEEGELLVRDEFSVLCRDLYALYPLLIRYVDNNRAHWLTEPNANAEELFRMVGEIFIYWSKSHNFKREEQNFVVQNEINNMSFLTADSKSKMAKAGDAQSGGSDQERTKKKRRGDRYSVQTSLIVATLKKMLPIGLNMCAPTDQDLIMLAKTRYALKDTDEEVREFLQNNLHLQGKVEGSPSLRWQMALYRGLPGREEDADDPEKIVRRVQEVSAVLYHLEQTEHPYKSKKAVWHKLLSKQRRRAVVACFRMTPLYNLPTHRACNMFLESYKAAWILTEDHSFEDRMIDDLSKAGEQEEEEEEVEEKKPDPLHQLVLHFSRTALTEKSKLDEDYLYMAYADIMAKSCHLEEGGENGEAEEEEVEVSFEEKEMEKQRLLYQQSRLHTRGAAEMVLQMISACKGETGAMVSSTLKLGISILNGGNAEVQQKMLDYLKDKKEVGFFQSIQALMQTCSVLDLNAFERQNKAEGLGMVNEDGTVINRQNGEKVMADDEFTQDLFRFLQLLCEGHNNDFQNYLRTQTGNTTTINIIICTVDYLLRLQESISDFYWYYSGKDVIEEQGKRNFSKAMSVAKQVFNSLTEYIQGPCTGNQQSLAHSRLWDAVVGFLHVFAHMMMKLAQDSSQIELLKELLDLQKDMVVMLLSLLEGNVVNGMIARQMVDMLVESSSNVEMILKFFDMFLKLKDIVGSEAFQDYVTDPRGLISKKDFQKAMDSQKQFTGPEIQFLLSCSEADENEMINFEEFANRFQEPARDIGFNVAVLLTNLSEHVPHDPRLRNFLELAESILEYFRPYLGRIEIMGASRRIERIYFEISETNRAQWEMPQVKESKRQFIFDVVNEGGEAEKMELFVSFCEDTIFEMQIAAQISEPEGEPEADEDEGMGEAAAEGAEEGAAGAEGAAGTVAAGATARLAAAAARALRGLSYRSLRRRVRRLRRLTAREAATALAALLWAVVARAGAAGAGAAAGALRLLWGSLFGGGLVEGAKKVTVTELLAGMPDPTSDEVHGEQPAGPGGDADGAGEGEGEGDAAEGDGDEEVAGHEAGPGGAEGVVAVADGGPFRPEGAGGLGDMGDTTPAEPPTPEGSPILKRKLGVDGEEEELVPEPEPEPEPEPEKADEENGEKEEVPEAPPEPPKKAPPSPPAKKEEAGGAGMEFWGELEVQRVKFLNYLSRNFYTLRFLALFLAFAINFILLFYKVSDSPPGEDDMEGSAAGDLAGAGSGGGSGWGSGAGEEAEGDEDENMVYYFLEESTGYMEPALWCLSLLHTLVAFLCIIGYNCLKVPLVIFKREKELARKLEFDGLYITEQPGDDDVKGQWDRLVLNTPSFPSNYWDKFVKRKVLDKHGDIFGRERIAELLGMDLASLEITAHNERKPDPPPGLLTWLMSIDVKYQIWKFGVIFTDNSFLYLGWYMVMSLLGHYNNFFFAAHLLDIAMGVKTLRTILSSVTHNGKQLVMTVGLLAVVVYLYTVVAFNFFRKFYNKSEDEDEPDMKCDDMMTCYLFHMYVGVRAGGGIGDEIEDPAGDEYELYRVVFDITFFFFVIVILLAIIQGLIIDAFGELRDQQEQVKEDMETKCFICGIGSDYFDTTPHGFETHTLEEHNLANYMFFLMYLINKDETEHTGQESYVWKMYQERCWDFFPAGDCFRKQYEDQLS
substance,measurement,value
"rabbit skeletal muscle type 1 ryanodine receptor (RyR1), P11716 1-5037",stoichiometry N,4
